The target of series [1] is 3×FLAG-tagged ArgD (N-acetylornithine aminotransferase) of Synechocystis sp. PCC 6803 (Synechocystis sp. PCC 6803) (UniProt P73133). The series is described as follows: co-IP; f.ArgD from Synechocystis cells grown with 18 mM nitrate without or with Orn (1 mM for 24 h; 100 μM for 1 h); proteins released from the anti-FLAG resin with 1% SDS instead of FLAG peptide; western blot; WT control. (In general: In western blotting, separated proteins are transferred to a membrane and probed.)

The target is the same in series [2]. Description: co-IP; f.ArgD or f.AstC purified from the soluble fraction of Synechocystis strains (ΔargD or ΔcphB background; cells with nitrate, without or with 1 mM Orn for 24 h) on anti-FLAG M2 gel, eluted with 3xFLAG peptide; SDS-PAGE, stained, blotted and probed with anti-Gun4 and anti-CphB.
The target of series [3] is ArgD-6xHis, recombinant Synechocystis ArgD (Synechocystis sp. PCC 6803) (UniProt P73133). The series is described as follows: isothermal spectral shift assay; 5 nM labeled ArgD or 20 nM labeled Gun4 (Red NHS dye) titrated with a serial dilution of the unlabelled partner; 25 mM Tris, 0.1% Pluronic F-127, pH 8, 25°C; Monolith X; triplicate.
Series [4] deals with the molecule itself. Description: native gel or EMSA; 2D blue native/SDS-PAGE of the f.ArgD anti-FLAG eluate; apparent mass on the BN gel. (In general: A gel shift assay detects complexes by their altered migration in electrophoresis.)
The target of series [5] is Gun4-6xHis, recombinant Synechocystis Gun4 (Synechocystis sp. PCC 6803). Description: isothermal spectral shift assay; 5 nM labeled ArgD or 20 nM labeled Gun4 (Red NHS dye) titrated with a serial dilution of the unlabelled partner; 25 mM Tris, 0.1% Pluronic F-127, pH 8, 25°C; Monolith X; triplicate.
The target in series [6] is T1, ArgD-6xHis, recombinant Synechocystis ArgD (Synechocystis sp. PCC 6803, UniProt P73133 1-429, 2nd Generation Red NHS dye).
T1 construct: N-acetylornithine aminotransferase ArgD, Synechocystis sp; PCC 6803, gene slr1022; the recombinant protein produced in E. coli is called full-length where the antibodies are described; Construct pET21a-argD; also called labeled ArgD; source: E. coli BL21 (DE3), pET21a, purified (Ni-NTA); not shown: His6, C-terminal, kept
T1 sequence (looked up): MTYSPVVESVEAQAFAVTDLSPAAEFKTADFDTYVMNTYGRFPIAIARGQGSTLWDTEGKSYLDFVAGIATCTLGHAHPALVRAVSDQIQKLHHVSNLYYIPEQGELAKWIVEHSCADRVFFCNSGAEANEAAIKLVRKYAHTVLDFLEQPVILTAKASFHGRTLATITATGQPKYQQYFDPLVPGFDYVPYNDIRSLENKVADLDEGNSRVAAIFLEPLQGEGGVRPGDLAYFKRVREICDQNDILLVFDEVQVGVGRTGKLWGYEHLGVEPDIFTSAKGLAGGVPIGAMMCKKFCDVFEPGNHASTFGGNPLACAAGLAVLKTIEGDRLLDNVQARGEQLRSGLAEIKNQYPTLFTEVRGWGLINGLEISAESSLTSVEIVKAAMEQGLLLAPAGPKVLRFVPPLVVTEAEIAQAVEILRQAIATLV
The series is described as above. Particulars: both partners purified.

Regarding “Gun4 protein of Synechocystis sp. PCC 6803 (native) (natural protein)”, in series [1], the fold enrichment of Gun4 in the f.ArgD pull-down (Orn-treated cells against control) is greater than 12 × and the fold increase of f.ArgD-co-purified Gun4 (1 h feeding with 100 μM Orn against control) came to 6 times. In series [2], this molecule had a fold more Gun4 co-purified with f.ArgD (cells with 1 mM Orn for 24 h against cells without Orn) of 6 times.
Consider “Gun4-6xHis, recombinant Synechocystis Gun4 (natural protein)”, for which the Kd in series [3] came to 55.8 nM.

B1: 3×FLAG-tagged ArgD (N-acetylornithine aminotransferase) of Synechocystis sp. PCC 6803 (enzyme, UniProt P73133 1-429, looked up)
chain: MTYSPVVESVEAQAFAVTDLSPAAEFKTADFDTYVMNTYGRFPIAIARGQGSTLWDTEGKSYLDFVAGIATCTLGHAHPALVRAVSDQIQKLHHVSNLYYIPEQGELAKWIVEHSCADRVFFCNSGAEANEAAIKLVRKYAHTVLDFLEQPVILTAKASFHGRTLATITATGQPKYQQYFDPLVPGFDYVPYNDIRSLENKVADLDEGNSRVAAIFLEPLQGEGGVRPGDLAYFKRVREICDQNDILLVFDEVQVGVGRTGKLWGYEHLGVEPDIFTSAKGLAGGVPIGAMMCKKFCDVFEPGNHASTFGGNPLACAAGLAVLKTIEGDRLLDNVQARGEQLRSGLAEIKNQYPTLFTEVRGWGLINGLEISAESSLTSVEIVKAAMEQGLLLAPAGPKVLRFVPPLVVTEAEIAQAVEILRQAIATLV
notes: N-acetylornithine aminotransferase ArgD, Synechocystis sp; PCC 6803, gene slr1022; synthetic argD gene with optimised codon usage cloned into pPD-NFLAG; f.ArgD printed as 49.8 kDa; also called f.ArgD; source: Synechocystis f.argD+/ΔargD or f.argD+/ΔcphB strain (psbAII promoter), soluble fraction; not shown: 3xFLAG, N-terminal, kept
As for B1, in series [4], the “stoichiometry N” value is 2.

B2: CphB-6xHis, recombinant Synechocystis CphB (enzyme, Synechocystis sp. PCC 6803, UniProt P73832 1-271, looked up)
chain: MPLSSQPAILIIGGAEDKVHGREILQTFWSRSGGNDAIIGIIPSASREPLLIGERYQTIFSDMGVKELKVLDIRDRAQGDDSGYRLFVEQCTGIFMTGGDQLRLCGLLADTPLMDRIRQRVHNGEISLAGTSAGAAVMGHHMIAGGSSGEWPNRALVDMAVGLGIVPEIVVDQHFHNRNRMARLLSAISTHPELLGLGIDEDTCAMFERDGSVKVIGQGTVSFVDARDMSYTNAALVGANAPLSLHNLRLNILVHGEVYHQVKQRAFPRVT
notes: cyanophycinase CphB, Synechocystis sp; PCC 6803, gene slr2001; the recombinant protein produced in E. coli is called full-length where the antibodies are described; Construct pET21a-cphB; source: E. coli BL21 (DE3), pET21a, purified (Ni-NTA); not shown: His6, C-terminal, kept
Consider B2, for which the Kd in series [5] came to 2160 nM; in series [6] it was 29800 ± 960 nM.

B3: cyanophycinase CphB of Synechocystis sp. PCC 6803 (native) (enzyme, UniProt P73832 1-271, looked up)
chain: MPLSSQPAILIIGGAEDKVHGREILQTFWSRSGGNDAIIGIIPSASREPLLIGERYQTIFSDMGVKELKVLDIRDRAQGDDSGYRLFVEQCTGIFMTGGDQLRLCGLLADTPLMDRIRQRVHNGEISLAGTSAGAAVMGHHMIAGGSSGEWPNRALVDMAVGLGIVPEIVVDQHFHNRNRMARLLSAISTHPELLGLGIDEDTCAMFERDGSVKVIGQGTVSFVDARDMSYTNAALVGANAPLSLHNLRLNILVHGEVYHQVKQRAFPRVT
notes: cyanophycinase CphB, Synechocystis sp; PCC 6803, gene slr2001; printed as 29.4 kDa; Migrated like a large oligomer (>200 kDa) on the BN gel; source: endogenous, Synechocystis soluble fraction
For B3, the binding result in series [4] is on record as “binds”.

What is called Kd is the free concentration of one partner at which half of the binding sites on the other are occupied at equilibrium, for simple one-to-one binding. What is called stoichiometry N is the number of molecules, sites or subunits per partner or assembly.

The values are drawn from publication PMC10783636, “Chlorophyll biosynthesis under the control of arginine metabolism” (Cell Reports, 2023).
